Source: paper PMC11754664, “DNA binding and transposition activity of the Sleeping Beauty transposase: role of structural stability of the primary DNA-binding domain”

B1: NS2 (dsDNA)
DNA 1: CGGTCTTTCCGTCTT
DNA 2: AAGACGGAAAGACCG
B2: Lo (dsDNA)
DNA 1: CAGTTGAAGTCGGAAGTTTACATACACTTAAG
DNA 2: CTTAAGTGTATGTAAACTTCCGACTTCAACTG
B3: Li (dsDNA)
DNA 1: TCCAGTGGGTCAGAAGTTTACATACACTAAGT
DNA 2: ACTTAGTGTATGTAAACTTCTGACCCACTGGA
B4: NS1 (dsDNA)
DNA 1: ACCTTCCTCCGCAATACTCCCCCAGGT
DNA 2: ACCTGGGGGAGTATTGCGGAGGAAGGT
B5: DR-core (dsDNA)
DNA 1: TCGGAAGTTTACATACAC
DNA 2: GTGTATGTAAACTTCCGA

What was measured:
[1] = target: T1, SB100X-H19Y (synthetic Sleeping Beauty transposon, K14R;H19Y;K33A;R115H;R214D;K215A;E216V;N217Q;M243H;T314N); assay: MST; nonspecific; Full-length MST: 50 mM Tris pH 7.5, 5 mM MgCl2, 300 mM NaCl, 2% glycerol, 50 mM Arg-Glu, 1 mM TCEP, 0.1% Triton X-100, 0.1 mg/ml BSA, 30 nM Cy5-DNA, room temp; settings: protein: recombinant, tags: Ni-NTA purified
[2] = target: T2, H19Y (PAI K14R/H19Y/K33A) (synthetic Sleeping Beauty transposon, UniProt PDB:6URS_1, K14R;H19Y;K33A); assay: NMR; HSQC and PFG diffusion, pH 5.2, 35 C; monomeric complex; Full-length MST: 50 mM Tris pH 7.5, 5 mM MgCl2, 300 mM NaCl, 2% glycerol, 50 mM Arg-Glu, 1 mM TCEP, 0.1% Triton X-100, 0.1 mg/ml BSA, 30 nM Cy5-DNA, room temp; settings: protein: recombinant; tags: Ni-NTA purified; label: 5' Cy5 on forward strand (MST)
[3] = target: T3, SB10-H19Y (synthetic Sleeping Beauty transposon, H19Y); assay: MST; Full-length MST: 50 mM Tris pH 7.5, 5 mM MgCl2, 300 mM NaCl, 2% glycerol, 50 mM Arg-Glu, 1 mM TCEP, 0.1% Triton X-100, 0.1 mg/ml BSA, 30 nM Cy5-DNA, room temp; settings: protein: recombinant; tags: Ni-NTA purified; label: 5' Cy5 on forward strand (MST)
[4] = target: T1, SB100X-H19Y; assay: as above; settings: protein: recombinant; tags: Ni-NTA purified; label: 5' Cy5 on forward strand (MST)
[5] = target: T4, SB100X transposase (synthetic Sleeping Beauty transposon, K14R;K33A;R115H;R214D;K215A;E216V;N217Q;M243H;T314N); assay: fluorescence anisotropy; Full-length MST: 50 mM Tris pH 7.5, 5 mM MgCl2, 300 mM NaCl, 2% glycerol, 50 mM Arg-Glu, 1 mM TCEP, 0.1% Triton X-100, 0.1 mg/ml BSA, 30 nM Cy5-DNA, room temp; settings: protein: recombinant; tags: Ni-NTA purified; label: 5' Cy5 on forward strand (MST)
[6] = target: T3, SB10-H19Y; assay: as above; settings: protein: recombinant; tags: Ni-NTA purified; label: 5' Cy5 on forward strand (MST)
[7] = target: T1, SB100X-H19Y; assay: as above; settings: protein: recombinant; tags: Ni-NTA purified; label: 5' Cy5 on forward strand (MST)
[8] = target: T5, SB10 transposase (synthetic Sleeping Beauty transposon); assay: as above; settings: protein: recombinant; tags: Ni-NTA purified; label: 5' Cy5 on forward strand (MST)
[9] = target: T4, SB100X transposase; assay: MST; specific (first) transition; Full-length MST: 50 mM Tris pH 7.5, 5 mM MgCl2, 300 mM NaCl, 2% glycerol, 50 mM Arg-Glu, 1 mM TCEP, 0.1% Triton X-100, 0.1 mg/ml BSA, 30 nM Cy5-DNA, room temp; settings: protein: recombinant; tags: Ni-NTA purified; label: 5' Cy5 on forward strand (MST)
[10] = target: T5, SB10 transposase; assay: as above; settings: protein: recombinant; tags: Ni-NTA purified; label: 5' Cy5 on forward strand (MST)
[11] = target: T4, SB100X transposase; assay: fluorescence lifetime; Full-length MST: 50 mM Tris pH 7.5, 5 mM MgCl2, 300 mM NaCl, 2% glycerol, 50 mM Arg-Glu, 1 mM TCEP, 0.1% Triton X-100, 0.1 mg/ml BSA, 30 nM Cy5-DNA, room temp; settings: protein: recombinant; tags: Ni-NTA purified; label: 5' Cy5 on forward strand (MST)
[12] = target: T3, SB10-H19Y; assay: as above; settings: protein: recombinant; tags: Ni-NTA purified; label: 5' Cy5 on forward strand (MST)
[13] = target: T1, SB100X-H19Y; assay: as above; settings: protein: recombinant; tags: Ni-NTA purified; label: 5' Cy5 on forward strand (MST)
[14] = target: T5, SB10 transposase; assay: as above; settings: protein: recombinant; tags: Ni-NTA purified; label: 5' Cy5 on forward strand (MST)
[15] = target: T2, H19Y (PAI K14R/H19Y/K33A); assay: NMR; HSQC and PFG diffusion, pH 5.2, 35 C, 1:5; monomeric complex; Full-length MST: 50 mM Tris pH 7.5, 5 mM MgCl2, 300 mM NaCl, 2% glycerol, 50 mM Arg-Glu, 1 mM TCEP, 0.1% Triton X-100, 0.1 mg/ml BSA, 30 nM Cy5-DNA, room temp; settings: protein: recombinant; tags: Ni-NTA purified; label: 5' Cy5 on forward strand (MST)
[16] = target: T4, SB100X transposase; assay: MST; nonspecific, monophasic; Full-length MST: 50 mM Tris pH 7.5, 5 mM MgCl2, 300 mM NaCl, 2% glycerol, 50 mM Arg-Glu, 1 mM TCEP, 0.1% Triton X-100, 0.1 mg/ml BSA, 30 nM Cy5-DNA, room temp; settings: protein: recombinant; tags: Ni-NTA purified; label: Cy5 (5' forward strand)
[17] = target: T5, SB10 transposase; assay: as above; settings: protein: recombinant; tags: Ni-NTA purified; label: Cy5 (5' forward strand)
[18] = target: T2, H19Y (PAI K14R/H19Y/K33A); assay: NMR; HSQC, pH 5.2, 35 C, 1:4.5 protein:DNA; Full-length MST: 50 mM Tris pH 7.5, 5 mM MgCl2, 300 mM NaCl, 2% glycerol, 50 mM Arg-Glu, 1 mM TCEP, 0.1% Triton X-100, 0.1 mg/ml BSA, 30 nM Cy5-DNA, room temp; settings: protein: recombinant; tags: Ni-NTA purified; label: 5' Cy5 on forward strand (MST)

| Binder | Kd [1] [nM] | binding result [2] | Kd [3] [nM] | Kd [4] [nM] | Kd [5] [nM] | Kd [6] [nM] | Kd [7] [nM] | Kd [8] [nM] | Kd [9] [nM] | Kd [10] [nM] | Kd [11] [nM] | Kd [12] [nM] | Kd [13] [nM] | Kd [14] [nM] | binding result [15] | Kd ([1]; label: Cy5 (5' forward strand)) [nM] | Kd [16] [nM] | Kd [17] [nM] | binding result [18] |
| --- | --- | --- | --- | --- | --- | --- | --- | --- | --- | --- | --- | --- | --- | --- | --- | --- | --- | --- | --- |
| B1 | 3430 ± 240 |  |  |  |  |  |  |  |  |  |  |  |  |  |  |  |  |  |  |
| B2 |  | binds | 11.6 ± 1.8 | 29.7 ± 3.5 | 13.7 ± 2.8 | 9.73 ± 2.5 | 17.3 ± 2.2 | 23.9 ± 2.8 | 23 ± 1.9 | 16.6 ± 2.6 | 16 ± 2.6 | 13.2 ± 1.1 | 20.6 ± 0.8 | 23 ± 2.2 |  |  |  |  |  |
| B3 |  |  | 10.2 ± 0.9 | 10.3 ± 0.8 | 27.6 ± 4.9 | 18.2 ± 2.2 | 16 ± 3.2 | 19.3 ± 2.8 | 23.6 ± 2.2 | 17.3 ± 1.2 | 25.9 ± 2.3 | 16 ± 0.7 | 16.2 ± 2.3 | 17.2 ± 0.8 | binds |  |  |  |  |
| B4 |  |  |  |  |  |  |  |  |  |  |  |  |  |  |  | 2710 ± 210 | 560 ± 40 | 2600 ± 160 |  |
| B5 |  |  | 31.1 ± 2.3 | 31.2 ± 11.1 | 35.1 ± 6.6 | 51.3 ± 8.3 |  | 37 ± 4 | 17.3 ± 1.1 | 25.3 ± 0.9 | 31.6 ± 3.4 | 45.4 ± 4.8 |  | 29.4 ± 2 |  |  |  |  | binds |
